Measurements published in article PMC10963267 (2023).

Tests used:
Assay in all cases: BLI
IL70094 = biological target: IL70094
IL70092 = biological target: IL70092
IL70097 = biological target: IL70097
IL70104 = biological target: IL70104
IL70103 = biological target: IL70103
IL70106 = biological target: IL70106
IL70110 = biological target: IL70110
IL70093 = biological target: IL70093
IL70096 = biological target: IL70096
IL70098 = biological target: IL70098
IL70095 = biological target: IL70095
IL70108 = biological target: IL70108
IL70101 = biological target: IL70101
IL70107 = biological target: IL70107
IL70099 = biological target: IL70099
IL70109 = biological target: IL70109

Kd (IL70094): 0.754 nM | Kd (IL70092): 0.909 nM | Kd (IL70097): 1.79 nM | Kd (IL70104): 2.64 nM | Kd (IL70103): 0.657 nM | Kd (IL70106): 2.92 nM | Kd (IL70110): 0.824 nM | Kd (IL70093): 0.525 nM | Kd (IL70096): 0.708 nM | Kd (IL70098): 0.52 nM | Kd (IL70095): 0.429 nM | Kd (IL70108): 2.55 nM | Kd (IL70101): 1.14 nM | Kd (IL70107): 2.94 nM | Kd (IL70099): 1.53 nM | Kd (IL70109): 1.48 nM
B1: human interleukin-7 (huIL-7), biotinylated (ligand)
chain: DCDIEGKDGKQYESVLMVSIDQLLDSMKEIGSNCLNNEFNFFKRHICDANKEGMFLFRAARKLRQFLKMNSTGDFDLHLLKVSEGTTILLNCTGQVKGRKPAALGEAQPTKSLEENKSLKEQKKLNDLCFLKRLLQEIKTCWNKILMGTKEH
modifications: biotin
